In patent US20240117018A1:

Experiments:
Assay in all cases: cell-based or functional assay
[1] = target: HIV-1 Env of pseudovirus Ce2060_G9 (HIV-1)
[2] = target: HIV-1 Env of pseudovirus HIV-0013095-2.11 (HIV-1)
[3] = target: HIV-1 Env of pseudovirus ZM233M.PB6 (HIV-1)
[4] = target: HIV-1 Env of pseudovirus 3365.v2.c2 (HIV-1)
[5] = target: HIV-1 Env of pseudovirus 249M B10 (HIV-1)
[6] = target: HIV-1 Env of pseudovirus Ce2010_F5 (HIV-1)
[7] = target: HIV-1 Env of pseudovirus TRO.11 (HIV-1)
[8] = target: HIV-1 Env of pseudovirus WEAU_d15_410_787 (HIV-1)
[9] = target: HIV-1 Env of pseudovirus CNE52 (HIV-1)
[10] = target: HIV-1 Env of pseudovirus CAP210.2.00.E8 (HIV-1)
[11] = target: HIV-1 Env of pseudovirus ZM109F.PB4 (HIV-1)
[12] = target: HIV-1 Env of pseudovirus ZM135M.PL10a (HIV-1)
[13] = target: HIV-1 Env of pseudovirus AC10.0.29 (HIV-1)
[14] = target: HIV-1 Env of pseudovirus MS208.A1 (HIV-1)
[15] = target: HIV-1 Env of pseudovirus PVO.4 (HIV-1)
[16] = target: HIV-1 Env of pseudovirus 0260.v5.c36 (HIV-1)
[17] = target: HIV-1 Env of pseudovirus QH0692.42 (HIV-1)
[18] = target: HIV-1 Env of pseudovirus 191084 B7-19 (HIV-1)
[19] = target: HIV-1 Env of pseudovirus Du172.17 (HIV-1)
[20] = target: HIV-1 Env of pseudovirus CNE17 (HIV-1)
[21] = target: HIV-1 Env of pseudovirus Ce1086_B2 (HIV-1)
[22] = target: HIV-1 Env of pseudovirus CNE53 (HIV-1)
[23] = target: HIV-1 Env of pseudovirus ZM214M.PL15 (HIV-1)
[24] = target: HIV-1 Env of pseudovirus ZM53M.PB12 (HIV-1)
[25] = target: HIV-1 Env of pseudovirus THRO4156.18 (HIV-1)
[26] = target: HIV-1 Env of pseudovirus WITO4160.33 (HIV-1)
[27] = target: HIV-1 Env of pseudovirus Q259.d2.17 (HIV-1)
[28] = target: HIV-1 Env of pseudovirus ZM247v1(Rev-) (HIV-1)

VRC07 (antibody) was tested, and the IC50 [1] was 0.085 µg/mL, the IC80 [1] was 0.422 µg/mL and the IC50 [2] was 0.017 µg/mL. For the same substance, the IC80 [2] was 0.057 µg/mL, the IC50 [3] was 0.152 µg/mL and the IC80 [3] was 0.625 µg/mL. It also gave an IC50 [4] of 0.038 µg/mL, an IC80 [4] of 0.109 µg/mL and an IC50 [5] of 0.052 µg/mL. For the same substance, the IC80 [5] was 0.204 µg/mL, the IC50 [6] was 0.131 µg/mL and the IC80 [6] was 0.48 µg/mL. It also gave an IC50 [7] of 0.132 µg/mL, an IC80 [7] of 0.456 µg/mL and an IC50 [8] of 0.034 µg/mL. It also gave an IC80 [8] of 0.115 µg/mL, an IC50 [9] of 0.042 µg/mL and an IC80 [9] of 0.142 µg/mL. The IC50 [10] was > 50 µg/mL, the IC80 [10] was > 50 µg/mL and the IC50 [11] was 0.112 µg/mL. The IC80 [11] was 0.389 µg/mL, the IC50 [12] was 0.104 µg/mL and the IC80 [12] was 0.383 µg/mL. For the same substance, the IC50 [13] was 0.282 µg/mL, the IC80 [13] was 0.986 µg/mL and the IC50 [14] was 0.12 µg/mL. It also gave an IC80 [14] of 0.425 µg/mL, an IC50 [15] of 0.063 µg/mL and an IC80 [15] of 0.226 µg/mL. It also gave an IC50 [16] of 0.448 µg/mL, an IC80 [16] of 1.62 µg/mL and an IC50 [17] of 0.5 µg/mL. The IC80 [17] was 1.86 µg/mL, the IC50 [18] was 0.061 µg/mL and the IC80 [18] was 0.209 µg/mL. It also gave an IC50 [19] of 0.796 µg/mL, an IC80 [19] of 3.66 µg/mL and an IC50 [20] of 0.136 µg/mL. The IC80 [20] was 0.651 µg/mL, the IC50 [21] was 0.128 µg/mL and the IC80 [21] was 0.84 µg/mL. For the same substance, the IC50 [22] was 0.031 µg/mL, the IC80 [22] was 0.086 µg/mL and the IC50 [23] was 0.198 µg/mL. It also gave an IC80 [23] of 1.42 µg/mL, an IC50 [24] of 0.275 µg/mL and an IC80 [24] of 1.29 µg/mL. For the same substance, the IC50 [25] was 2.4 µg/mL, the IC80 [25] was 12.2 µg/mL and the IC50 [26] was 0.042 µg/mL. For the same substance, the IC80 [26] was 0.193 µg/mL, the IC50 [27] was 0.024 µg/mL and the IC80 [27] was 0.1 µg/mL. The IC50 [28] was 0.041 µg/mL and the IC80 [28] was 0.189 µg/mL.

NIH 45-46 (antibody) was tested, and the IC50 [1] was 0.14 µg/mL, the IC80 [1] was 0.48 µg/mL and the IC50 [2] was 0.01 µg/mL. It also gave an IC80 [2] of 0.03 µg/mL, an IC50 [3] of 1.86 µg/mL and an IC80 [3] of 16.5 µg/mL. For the same substance, the IC50 [4] was 0.11 µg/mL, the IC80 [4] was 0.11 µg/mL and the IC50 [5] was 0.04 µg/mL. The IC80 [5] was 0.17 µg/mL, the IC50 [6] was 0.13 µg/mL and the IC80 [6] was 0.43 µg/mL. It also gave an IC50 [7] of 1.9 µg/mL, an IC80 [7] of 9.56 µg/mL and an IC50 [8] of 0.01 µg/mL. It also gave an IC80 [8] of 0.03 µg/mL, an IC50 [9] of 0.03 µg/mL and an IC80 [9] of 0.12 µg/mL. For the same substance, the IC50 [10] was > 50 µg/mL, the IC80 [10] was > 50 µg/mL and the IC50 [11] was 0.22 µg/mL. It also gave an IC80 [11] of 0.22 µg/mL, an IC50 [12] of 0.36 µg/mL and an IC80 [12] of 3.11 µg/mL. It also gave an IC50 [13] of 0.42 µg/mL, an IC80 [13] of 1.49 µg/mL and an IC50 [14] of 0.09 µg/mL. The IC80 [14] was 0.6 µg/mL, the IC50 [15] was 0.17 µg/mL and the IC80 [15] was 0.47 µg/mL. It also gave an IC50 [17] of 0.55 µg/mL, an IC80 [17] of 1.56 µg/mL and an IC50 [18] of 0.02 µg/mL. For the same substance, the IC80 [18] was 0.07 µg/mL, the IC50 [19] was > 30 µg/mL and the IC80 [19] was > 30 µg/mL. The IC50 [20] was 0.15 µg/mL, the IC80 [20] was 0.55 µg/mL and the IC50 [21] was 0.04 µg/mL. The IC80 [21] was 0.28 µg/mL, the IC50 [22] was 0.01 µg/mL and the IC80 [22] was 0.04 µg/mL. For the same substance, the IC50 [23] was 0.05 µg/mL, the IC80 [23] was 0.39 µg/mL and the IC50 [24] was 0.65 µg/mL. It also gave an IC80 [24] of 0.65 µg/mL, an IC50 [25] of 1.59 µg/mL and an IC80 [25] of 6.02 µg/mL. The IC50 [26] was 0.01 µg/mL, the IC80 [26] was 0.08 µg/mL and the IC50 [27] was 0.01 µg/mL. The IC80 [27] was 0.06 µg/mL, the IC50 [28] was 1.64 µg/mL and the IC80 [28] was > 50 µg/mL.

In the case of 3BNC117 (antibody), the IC50 [1] was 0.24 µg/mL, the IC80 [1] was 0.81 µg/mL and the IC50 [2] was 0.33 µg/mL. For the same substance, the IC80 [2] was 2.53 µg/mL, the IC50 [3] was 0.13 µg/mL and the IC80 [3] was 0.85 µg/mL. For the same substance, the IC50 [4] was 0.03 µg/mL, the IC80 [4] was 0.1 µg/mL and the IC50 [5] was 0.1 µg/mL. The IC80 [5] was 0.4 µg/mL, the IC50 [6] was 0.05 µg/mL and the IC80 [6] was 0.21 µg/mL. For the same substance, the IC50 [7] was < 0.09 µg/mL, the IC80 [7] was < 0.09 µg/mL and the IC50 [8] was 0.05 µg/mL. It also gave an IC80 [8] of 0.19 µg/mL, an IC50 [9] of 0.02 µg/mL and an IC80 [9] of 0.06 µg/mL. For the same substance, the IC50 [10] was 17.2 µg/mL, the IC80 [10] was > 50 µg/mL and the IC50 [11] was 0.14 µg/mL. The IC80 [11] was 0.88 µg/mL, the IC50 [12] was 0.03 µg/mL and the IC80 [12] was 0.13 µg/mL. The IC50 [13] was 13.8 µg/mL, the IC80 [13] was > 50 µg/mL and the IC50 [14] was 0.01 µg/mL. The IC80 [14] was 0.09 µg/mL, the IC50 [15] was < 0.09 µg/mL and the IC80 [15] was 0.19 µg/mL. The IC50 [17] was 0.13 µg/mL, the IC80 [17] was 0.49 µg/mL and the IC50 [18] was 0.07 µg/mL. It also gave an IC80 [18] of 0.23 µg/mL, an IC50 [19] of 1.19 µg/mL and an IC80 [19] of 8.9 µg/mL. For the same substance, the IC50 [20] was 5.76 µg/mL, the IC80 [20] was 43 µg/mL and the IC50 [21] was 0.09 µg/mL. It also gave an IC80 [21] of 0.31 µg/mL, an IC50 [22] of 0.08 µg/mL and an IC80 [22] of 0.99 µg/mL. For the same substance, the IC50 [23] was 0.06 µg/mL, the IC80 [23] was 0.52 µg/mL and the IC50 [24] was 0.21 µg/mL. For the same substance, the IC80 [24] was 0.85 µg/mL, the IC50 [25] was 1.76 µg/mL and the IC80 [25] was 10.1 µg/mL. The IC50 [26] was 0.01 µg/mL, the IC80 [26] was 0.04 µg/mL and the IC50 [27] was 0.01 µg/mL. For the same substance, the IC80 [27] was 0.05 µg/mL, the IC50 [28] was > 50 µg/mL and the IC80 [28] was > 50 µg/mL.
